# Source: article PMC3315326
# Target: DNMT1 (UniProt P26358 1-1616)
# Experiment: SPR
# Sequence of DNMT1 (P26358 whole entry): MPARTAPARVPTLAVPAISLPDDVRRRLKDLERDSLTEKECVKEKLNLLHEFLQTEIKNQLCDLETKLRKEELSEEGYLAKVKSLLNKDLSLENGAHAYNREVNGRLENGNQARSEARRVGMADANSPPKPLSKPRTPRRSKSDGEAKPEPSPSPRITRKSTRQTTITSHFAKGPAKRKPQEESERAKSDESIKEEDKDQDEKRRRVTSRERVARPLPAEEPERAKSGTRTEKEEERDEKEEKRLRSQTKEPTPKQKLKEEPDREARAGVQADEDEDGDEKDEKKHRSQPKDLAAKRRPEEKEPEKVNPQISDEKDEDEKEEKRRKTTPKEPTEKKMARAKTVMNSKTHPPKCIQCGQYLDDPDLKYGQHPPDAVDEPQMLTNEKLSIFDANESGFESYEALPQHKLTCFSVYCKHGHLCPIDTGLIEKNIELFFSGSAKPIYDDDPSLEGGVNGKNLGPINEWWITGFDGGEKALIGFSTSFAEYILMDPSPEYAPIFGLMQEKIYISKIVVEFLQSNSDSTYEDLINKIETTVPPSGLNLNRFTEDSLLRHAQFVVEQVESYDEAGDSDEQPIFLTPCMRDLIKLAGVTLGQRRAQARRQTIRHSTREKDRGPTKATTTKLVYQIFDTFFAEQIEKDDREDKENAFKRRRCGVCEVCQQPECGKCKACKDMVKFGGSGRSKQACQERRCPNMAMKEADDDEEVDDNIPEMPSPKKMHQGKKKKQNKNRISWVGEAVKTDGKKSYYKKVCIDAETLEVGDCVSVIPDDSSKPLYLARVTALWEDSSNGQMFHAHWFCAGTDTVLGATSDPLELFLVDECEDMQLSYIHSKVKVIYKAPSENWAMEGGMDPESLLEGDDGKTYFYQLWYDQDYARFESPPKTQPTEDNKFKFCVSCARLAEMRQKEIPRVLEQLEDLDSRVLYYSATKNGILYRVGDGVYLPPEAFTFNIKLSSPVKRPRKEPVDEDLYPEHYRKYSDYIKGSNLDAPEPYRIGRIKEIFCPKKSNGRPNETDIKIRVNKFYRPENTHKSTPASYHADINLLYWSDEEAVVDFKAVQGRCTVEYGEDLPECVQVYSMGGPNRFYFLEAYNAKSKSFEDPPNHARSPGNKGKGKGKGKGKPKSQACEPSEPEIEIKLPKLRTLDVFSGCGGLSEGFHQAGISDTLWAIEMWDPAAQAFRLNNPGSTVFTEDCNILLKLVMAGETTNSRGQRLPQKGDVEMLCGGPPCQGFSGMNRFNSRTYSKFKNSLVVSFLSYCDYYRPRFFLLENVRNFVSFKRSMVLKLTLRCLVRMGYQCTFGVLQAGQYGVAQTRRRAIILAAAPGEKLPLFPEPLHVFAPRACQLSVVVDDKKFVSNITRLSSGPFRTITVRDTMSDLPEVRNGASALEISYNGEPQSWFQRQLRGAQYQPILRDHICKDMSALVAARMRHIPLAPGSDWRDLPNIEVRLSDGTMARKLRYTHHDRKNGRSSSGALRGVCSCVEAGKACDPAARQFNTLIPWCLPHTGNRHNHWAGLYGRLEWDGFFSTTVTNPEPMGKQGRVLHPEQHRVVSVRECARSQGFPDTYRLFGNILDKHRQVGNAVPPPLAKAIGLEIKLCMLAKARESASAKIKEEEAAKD
binder,measurement,value
"hemimethylated 30-bp oligo (D1subHMF/D1subUMF) (dsDNA, 5-methylcytosine at position 15 of strand 1) DNA 1: GAAGCTGGGACTTCCGGCAGGAGAGTGCAA DNA 2: TTGCACTCTCCTGCCGGAAGTCCCAGCTTC",Kd,1070 nM
